In the FLAb antibody collection (doi:10.7554/elife.23156):

B1: scFv; the commonest letter at each place (parent)
chain 1: EVKLDETGGGLVQPGRPMKLSCVASGFTFSDYWMNWVRQSPEKGLEWVAQIRNKPYNYETYYSDSVKGRFTISRDDSKSSVYLQMNNLRVEDMGIYYCTGSYYGMDYWGQGTSVTVS
chain 2: DVVMTQTPLSLPVSLGDQASISCRSSQSLVHSNGNTYLRWYLQKPGQSPKVLIYKVSNRFSGVPDRFSGSGSGTDFTLKISRVEAEDLGVYFCSQSTHVPWTFGGGTKLEIK

Assays:
[1] = variants of: B1; assay: Kd (Tite-Seq); conditions: with fluorescein; format: scFv 4-4-20, heavy + light
[2] = variants of: B1; assay: yeast surface expression (ratio to wild type); higher = more expressed; conditions: format: scFv 4-4-20, heavy + light

Variant	Kd [1] [µM]	yeast surface expression [2]
chain 1 T28Y N35Y	≥ 10	0.86
chain 1 S101D D106C W108N	≥ 10	0.369
chain 1 D31T W33F	2.11	0.629
chain 1 M34H N35I	≥ 10	0.552
chain 1 S101N Y102M	≥ 10	0.944
chain 1 G100F Y107I	≥ 10	0.947
chain 1 D31P Y32L	≥ 10	0.86
chain 1 M105F G109L	≥ 10	0.369
chain 1 Y103V Y107V	≥ 10	0.603
chain 1 Y103G G109T	≥ 10	0.68
chain 1 Y102S Y107R	0.00251	0.667
chain 1 Y32K W33E	≥ 10	0.552
chain 1 Y103F	0.000763	1.06
chain 1 M34W N35C	≥ 10	0.721
chain 1 G104T D106C Y107Q	≥ 10	0.31
chain 1 Y32W M34W	≥ 10	0.838
chain 1 G100D G109I	≥ 10	0.553
chain 1 G100D G109V	≥ 10	0.136
chain 1 W33H M34R V37T	≥ 10	0.786
chain 1 M34I W36M	0.712	0.783
chain 1 M34T W36Y	≥ 10	0.649
chain 1 M34T W36L	≥ 10	0.455
chain 1 G104H D106H	≥ 10	0.586
chain 1 T28V	0.00128	1

Variant	Kd [1] [µM]	yeast surface expression [2]
chain 1 D31S W36C	≥ 10	0.929
chain 1 S101E G104S	≥ 10	0.804
chain 1 Y102K Y107H	0.0233	0.909
chain 1 M34R V37W	0.0353	3.88
chain 1 Y102G G104L	≥ 10	0.816
chain 1 S101C M105Y Y107T	≥ 10	0.488
chain 1 S101C M105Y Y107D	≥ 10	0.281
chain 1 N35P W36V	7.33	1.08
chain 1 N35P W36T	≥ 10	0.338
chain 1 S30I D31H W33C	≥ 10	0.449
chain 1 S30H N35E	≥ 10	0.504
chain 1 S101E M105V D106P	≥ 10	0.387
chain 1 Y103R G109V	≥ 10	0.47
chain 1 Y32K N35R	≥ 10	0.103
chain 1 T28P Y32D W36I	≥ 10	0.789
chain 1 Y103I W108C	3.74	0.359
chain 1 G100S Y107D	≥ 10	0.543
chain 1 Y107V W108Y	0.000688	0.724
chain 1 S101L M105F	≥ 10	0.521
chain 1 T28P V37P	≥ 10	1.08
chain 1 D106H Y107A	≥ 10	0.455
chain 1 Y102W G109V	≥ 10	0.19
chain 1 D31V M34C	≥ 10	0.411
chain 1 F29V M34E	≥ 10	0.715

Variant	Kd [1] [µM]	yeast surface expression [2]
chain 1 G104W	≥ 10	0.587
chain 1 Y102W Y107W	0.00158	0.797
chain 1 T28N D31C	0.00468	0.826
chain 1 Y107E W108K	≥ 10	0.513
chain 1 S30Q W33N	≥ 10	0.979
chain 1 W33A W36H	≥ 10	0.549
chain 1 F29V W33N	≥ 10	0.722
chain 1 S30P W33Q W36F	≥ 10	0.838
chain 1 V37C	≤ 0.000316	0.926
chain 1 V37N	0.00309	0.62
chain 1 F29W N35G	≥ 10	0.71
chain 1 S101I Y103T W108D	≥ 10	0.293
chain 1 Y32N V37G	0.0113	2.76
chain 1 F29C S30C	≥ 10	0.693
chain 1 S30Y W33G	≥ 10	0.602
chain 1 M105R G109W	≥ 10	0.232
chain 1 S101N W108D	≥ 10	0.399
chain 1 G104H Y107R	≥ 10	0.518
chain 1 G100H S101H	≥ 10	0.273
chain 1 W33Q W36S	7.33	0.839
chain 1 T28E D31K	0.00184	0.969
chain 1 G109V	≥ 10	0.34
chain 1 G109R	≥ 10	0.297
chain 1 S30R M34D	≥ 10	0.775

Variant	Kd [1] [µM]	yeast surface expression [2]
chain 1 T28V S30D	0.000454	0.917
chain 1 Y102L G109M	≥ 10	0.185
chain 1 Y107P	≥ 10	0.414
chain 1 Y107S	0.00239	0.77
chain 1 Y107F	0.0017	0.928
chain 1 Y107L W108D	≥ 10	0.326
chain 1 S101Q M105V	≥ 10	0.835
chain 1 S30W W36D	≥ 10	0.104
chain 1 T28H S30D	0.00184	0.948
chain 1 D31K Y32G	0.0729	0.879
chain 1 G100P D106M	≥ 10	0.537
chain 1 Y102Q M105D	≥ 10	0.932
chain 1 Y32R W33M	≥ 10	0.809
chain 1 T28K F29C	0.0372	0.906
chain 1 F29D V37A	≥ 10	0.907
chain 1 Y32T V37G	≥ 10	1.64
chain 1 D31N N35S V37A	≥ 10	0.656
chain 1 S101H Y103Q	≥ 10	0.871
chain 1 W33D V37C	≥ 10	0.802
chain 1 S101F G104Q	≥ 10	0.241
chain 1 S30F N35C	≥ 10	0.555
chain 1 F29L M34D	≥ 10	0.656
chain 1 D31F Y32V N35C	≥ 10	0.0993
chain 1 F29P D31A M34A	≥ 10	0.567

Variant	Kd [1] [µM]	yeast surface expression [2]
chain 1 M34I V37I	0.00827	0.831
chain 1 S101E G104K M105C	≥ 10	0.346
chain 1 Y32C M34F	≥ 10	0.872
chain 1 W33Y N35R	≥ 10	0.524
chain 1 S30M	0.00175	0.855
chain 1 S30Q	0.000938	1.12
chain 1 D31E	0.00278	0.925
chain 1 D31H	0.00179	0.763
chain 1 W33D N35G	≥ 10	0.941
chain 1 F29A S30D M34K	≥ 10	0.41
chain 1 S30C W36G	0.021	0.208
chain 1 S30C W36Y	0.0434	0.691
chain 1 N35C	≥ 10	0.708
chain 1 N35K	0.228	0.806
chain 1 S101K	≥ 10	0.463
chain 1 S101F	≥ 10	0.596
chain 1 S101A	0.000724	0.836
chain 1 S101E	≥ 10	0.838
chain 1 W33K V37L	0.345	0.761
chain 1 Y103H W108R	≥ 10	0.35
